Data published in PMC8563870, “Development of a nanobody-based immunoassay for the sensitive detection of fibrinogen-like protein 1” (Acta Pharmacologica Sinica, 2021).

B1: FGL1-Fc fusion protein (human fibrinogen-like protein 1 with C-terminal human IgG1 Fc and Flag tag) (Fc fusion, UniProt Q08830 23-306, looked up)
chain: LEDCAQEQMRLRAQVRLLETRVKQQQVKIKQLLQENEVQFLDKGDENTVIDLGSKRQYADCSEIFNDGYKLSGFYKIKPLQSPAEFSVYCDMSDGGGWTVIQRRSDGSENFNRGWKDYENGFGNFVQKHGEYWLGNKNLHFLTTQEDYTLKIDLADFEKNSRYAQYKNFKVGDEKNFYELNIGEYSGTAGDSLAGNFHPEVQWWASHQRMKFSTWDRDHDNYEGNCAEEDQSGWWFNRCHSANLNGVYYSGPYTAKTDNGIVWYTWHGWWYSLKSVVMKIRPND
notes: signal peptide in the construct; human fibrinogen-like protein 1 (FGL1), amino acids 1-306 of NCBI NM_004467, called full-length in the methods; the results say that the protein has 312 amino acids; A 3C protease site and a linker (GGGGS) stand between FGL1 and the Fc, and the Flag tag follows the Fc; The Fc may itself hold the dimer together; For SPR and the ELISAs the Fc was cut off with 3C …

Experiments:
LAG-3 (Homo sapiens) = LAG-3 (Homo sapiens) (UniProt P18627); conditions: cited from earlier work
[1] = target: the molecule itself; test: SEC; Superdex 200, 20 mM Tris pH 8.0, 150 mM NaCl; FGL1-Fc after anti-Flag M2 affinity; one aggregate peak and two FGL1 peaks, the peak at approximately 66 mL taken as the homodimer

Chain of LAG-3 (Homo sapiens) (P18627 23-450): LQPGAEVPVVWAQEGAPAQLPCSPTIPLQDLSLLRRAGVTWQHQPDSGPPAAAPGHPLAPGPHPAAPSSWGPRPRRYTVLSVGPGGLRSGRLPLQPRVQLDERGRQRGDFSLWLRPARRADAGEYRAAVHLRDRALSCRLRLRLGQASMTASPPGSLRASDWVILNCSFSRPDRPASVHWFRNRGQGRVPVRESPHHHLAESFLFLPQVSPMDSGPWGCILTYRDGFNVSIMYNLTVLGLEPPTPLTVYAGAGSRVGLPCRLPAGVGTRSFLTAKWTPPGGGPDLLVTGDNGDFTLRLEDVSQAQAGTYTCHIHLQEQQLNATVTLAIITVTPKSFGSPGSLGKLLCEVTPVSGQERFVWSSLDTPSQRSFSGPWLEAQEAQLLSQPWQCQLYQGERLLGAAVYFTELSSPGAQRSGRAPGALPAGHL

| Molecule | Kd (LAG-3 (Homo sapiens)) [nM] | stoichiometry N [1] |
| --- | --- | --- |
| FGL1 (from UniProt Q08830) | 1.5 | – |
| B1 | – | 2 |
